This assay addresses transferrin receptor (TfR) (UniProt P02786 89-760, limits assumed). The assay is described as follows: phage-based ELISA (assay not given).

Ends that are not written are not given here.

Chain of transferrin receptor (TfR) (P02786 89-760 limits assumed): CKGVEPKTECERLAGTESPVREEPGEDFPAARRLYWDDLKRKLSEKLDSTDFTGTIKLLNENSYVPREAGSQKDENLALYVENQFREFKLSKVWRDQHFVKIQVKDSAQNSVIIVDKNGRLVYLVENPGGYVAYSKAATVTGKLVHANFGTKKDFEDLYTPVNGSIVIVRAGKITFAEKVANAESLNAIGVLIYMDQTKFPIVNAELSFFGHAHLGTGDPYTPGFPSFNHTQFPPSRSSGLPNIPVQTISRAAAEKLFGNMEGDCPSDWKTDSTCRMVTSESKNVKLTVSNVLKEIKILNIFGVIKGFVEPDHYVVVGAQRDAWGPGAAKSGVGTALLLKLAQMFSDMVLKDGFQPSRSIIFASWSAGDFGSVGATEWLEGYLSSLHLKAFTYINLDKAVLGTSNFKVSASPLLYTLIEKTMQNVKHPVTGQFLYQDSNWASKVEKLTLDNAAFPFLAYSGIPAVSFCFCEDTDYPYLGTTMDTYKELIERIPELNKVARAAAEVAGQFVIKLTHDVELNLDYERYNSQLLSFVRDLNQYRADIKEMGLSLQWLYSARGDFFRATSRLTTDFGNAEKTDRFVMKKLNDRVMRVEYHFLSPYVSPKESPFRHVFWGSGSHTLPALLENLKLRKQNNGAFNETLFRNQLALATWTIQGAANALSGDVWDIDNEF

B1: PSMA-3 peptide displayed on M13 phage (peptide, not shown: large carriers)
peptide: SECVEVFQNSCDW
modifications: not fully specified; cysteine pairing not given here
notes: Tested on phage in ELISA and as phage encapsulated in PEDOT nanowires; also called second generation peptide; PSMA-3 viruses
On to B1, for which the binding result is recorded as “no binding”.

Values taken from patent publication US8525237 (University of California, dated 2013).
